In PMC6327041, “Histone H3 binding to the PHD1 domain of histone demethylase KDM5A enables active site remodeling” (Nature Communications, 2019):

Molecular target: KDM5A PHD1 domain, S287-K347 (UniProt P29375)
Test: competition fluorescence polarization
Settings: reference: unmodified H3 10mer peptide

Sequence of KDM5A PHD1 domain, S287-K347 (P29375 whole entry, looked up, the tested form may be a part): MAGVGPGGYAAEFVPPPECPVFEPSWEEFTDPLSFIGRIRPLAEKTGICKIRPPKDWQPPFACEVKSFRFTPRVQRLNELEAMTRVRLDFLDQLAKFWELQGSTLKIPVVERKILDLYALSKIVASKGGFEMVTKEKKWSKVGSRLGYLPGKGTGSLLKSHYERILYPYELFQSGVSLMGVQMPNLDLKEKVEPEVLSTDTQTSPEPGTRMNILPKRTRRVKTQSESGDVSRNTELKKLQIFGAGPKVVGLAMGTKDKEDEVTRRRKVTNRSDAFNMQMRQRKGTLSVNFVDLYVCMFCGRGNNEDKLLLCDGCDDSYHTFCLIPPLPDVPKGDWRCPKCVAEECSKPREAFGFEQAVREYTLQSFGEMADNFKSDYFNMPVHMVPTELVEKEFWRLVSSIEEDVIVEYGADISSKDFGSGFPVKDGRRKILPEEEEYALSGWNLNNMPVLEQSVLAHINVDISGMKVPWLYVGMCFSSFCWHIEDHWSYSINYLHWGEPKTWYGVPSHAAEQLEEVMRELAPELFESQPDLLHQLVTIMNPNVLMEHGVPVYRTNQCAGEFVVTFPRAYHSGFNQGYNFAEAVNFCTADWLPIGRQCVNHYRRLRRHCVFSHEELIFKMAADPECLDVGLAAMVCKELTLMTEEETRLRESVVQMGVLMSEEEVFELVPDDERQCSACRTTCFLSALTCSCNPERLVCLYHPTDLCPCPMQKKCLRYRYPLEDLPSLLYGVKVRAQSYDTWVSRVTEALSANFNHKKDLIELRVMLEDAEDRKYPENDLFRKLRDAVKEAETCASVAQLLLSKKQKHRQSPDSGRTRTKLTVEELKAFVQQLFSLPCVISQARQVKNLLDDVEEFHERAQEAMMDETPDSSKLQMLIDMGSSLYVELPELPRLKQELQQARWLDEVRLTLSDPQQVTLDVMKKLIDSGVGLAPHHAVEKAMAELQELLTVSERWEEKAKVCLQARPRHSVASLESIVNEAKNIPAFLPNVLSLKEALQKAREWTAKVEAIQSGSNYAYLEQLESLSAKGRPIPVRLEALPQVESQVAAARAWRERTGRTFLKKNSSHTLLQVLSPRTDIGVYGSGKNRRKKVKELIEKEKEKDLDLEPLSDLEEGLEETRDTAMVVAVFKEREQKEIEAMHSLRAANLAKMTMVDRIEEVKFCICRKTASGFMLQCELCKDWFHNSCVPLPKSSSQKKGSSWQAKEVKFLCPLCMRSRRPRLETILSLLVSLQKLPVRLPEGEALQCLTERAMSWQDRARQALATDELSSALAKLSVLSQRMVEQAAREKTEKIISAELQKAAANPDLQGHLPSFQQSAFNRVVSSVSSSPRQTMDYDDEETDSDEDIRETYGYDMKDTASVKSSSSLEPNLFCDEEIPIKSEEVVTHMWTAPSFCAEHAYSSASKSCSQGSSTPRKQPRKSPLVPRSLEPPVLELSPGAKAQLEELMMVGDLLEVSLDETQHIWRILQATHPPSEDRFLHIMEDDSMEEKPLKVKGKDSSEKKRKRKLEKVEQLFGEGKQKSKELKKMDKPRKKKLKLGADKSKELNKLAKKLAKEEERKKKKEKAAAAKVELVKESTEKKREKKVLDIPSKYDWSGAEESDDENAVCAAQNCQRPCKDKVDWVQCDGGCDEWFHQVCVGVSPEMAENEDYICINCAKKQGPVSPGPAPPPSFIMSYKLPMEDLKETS

binding against the reference (sites T6)	binding against the reference (sites T3)	Substance
weaker		histone H3 (N-terminal tail peptide) N-terminal tail 10mer, 1-10 (from UniProt P68431) H3T6ph 10mer peptide
	weaker	histone H3 (N-terminal tail peptide) N-terminal tail 10mer, 1-10 (from UniProt P68431) H3T3ph 10mer peptide
